This data set deals with FUBP1-strep (UniProt Q96AE4 1-644). Briefly: EMSA; EMSA: 10 mM Tris pH 7.5, 140 mM KCl, 10 mM NaCl, 1 mM MgCl2, 10% glycerol, 1 mM DTT, RNase inhibitor 1 U/ul, room temperature 30 min; probe 20 nM (Fig. 3A) or 10 nM (Fig. 5E, S5D). Pull-down: HepG2 lysate (50 mM Tris pH 7.5, 100 mM NaCl, 1% NP-40, 0.5% deoxycholate) + tRNA 50 ug/ml, RT 30 min then 4 C 90 min; washes 10 mM Tris pH 7.5, 150 mM KCl, 1.5 mM MgCl2, 0.1% NP-40, 0.5 mM DTT. As to conditions: protein: recombinant; tags: C-terminal Strep-tag; label: 5' FAM. On the technique in general: A gel shift assay detects complexes by their altered migration in electrophoresis.
Chain of FUBP1-strep (Q96AE4 whole entry): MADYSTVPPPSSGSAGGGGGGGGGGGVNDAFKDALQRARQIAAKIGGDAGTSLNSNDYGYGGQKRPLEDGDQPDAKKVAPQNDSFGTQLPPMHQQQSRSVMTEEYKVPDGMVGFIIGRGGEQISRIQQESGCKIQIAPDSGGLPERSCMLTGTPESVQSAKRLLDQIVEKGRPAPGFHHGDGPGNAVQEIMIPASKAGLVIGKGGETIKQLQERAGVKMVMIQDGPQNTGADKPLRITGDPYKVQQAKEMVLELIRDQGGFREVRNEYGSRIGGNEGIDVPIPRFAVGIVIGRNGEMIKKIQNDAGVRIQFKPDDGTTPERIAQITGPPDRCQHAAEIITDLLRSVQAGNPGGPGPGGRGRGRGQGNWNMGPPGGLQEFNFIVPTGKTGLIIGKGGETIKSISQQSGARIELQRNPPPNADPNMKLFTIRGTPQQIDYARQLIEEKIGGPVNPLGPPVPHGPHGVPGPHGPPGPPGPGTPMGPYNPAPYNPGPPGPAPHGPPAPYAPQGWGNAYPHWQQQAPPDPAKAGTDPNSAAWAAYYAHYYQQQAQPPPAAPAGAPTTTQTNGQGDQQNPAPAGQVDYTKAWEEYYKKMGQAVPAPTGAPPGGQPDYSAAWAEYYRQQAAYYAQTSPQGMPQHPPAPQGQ

In the case of ACUGAACGCCUUUAAGUCAGAAUCCCACCC (ssRNA, 2'-O-methyl at G4, G16, C18, A19, C24, C25, A27) [SEC14L1 Nm], the binding result is “binds”.
Next, CGCUGAGUGCGCUGCACUGACCUUCUUCCA (ssRNA, 2'-O-methyl, multiple sites) [SNX5 Nm]: “binds”.

The values are drawn from publication PMC12533644, “Nuclear 2′-O-methylation regulates RNA splicing through its binding protein FUBP1”.
